Test results as given in patent US6602850B1, “Method of treating asthma using soluble IL-9 receptor variants” (Genaera Corporation, priority 1996, dated 2003).

B1: ΔQ173 variant: splice variant of the IL-9R wherein the glutamine residue at position 173 of the precursor protein has been deleted (SEQ ID NO 3) (protein)
chain: SVTGEGQGPRSRTFTCLTNNILRIDCHWSAPELGQGSSPWLLFTSNQAPGGTHKCILRGSECTVVLPPEAVLVPSDNFTITFHHCMSGREQVSLVDPEYLPRRHVKLDPPSDLQSNISSGHCILTWSISPALEPMTTLLSYELAFKKQEEAWEAQHRDHIVGVTWLILEAFELDPGFIHEARLRVQMATLEDDVVEEERYTGQWSEWSQPVCFQAPQRQGPLIPPWGWPGNTLVAVSIFLLLTGPTYLLFKLSPRVKRIFYQNVPSPAMFFQPLYSVHNGNFQTWMGAHRAGVLLSQDCAGTPQGALEPCVQEATALLTCGPARPWKSVALEEEQEGPGTRLPGNLSSEDVLPAGCTEWRVQTLAYLPQEDWAPTSLTRPAPPDSEGSRSSSSSSSSSNNNNYCALGCYGGWHLSALPGNTQSSGPIPALACGLSCDHQGLETQQGVAWVLAGHCQRPGLHEDLQGMLLPSVLSKARSWTF
B2: IL-9R: wild type human IL-9 receptor, Arg allele at codon 344 with 8 Ser/4 Asn repeats (SEQ ID NO 1) (protein)
chain: SVTGEGQGPRSRTFTCLTNNILRIDCHWSAPELGQGSSPWLLFTSNQAPGGTHKCILRGSECTVVLPPEAVLVPSDNFTITFHHCMSGREQVSLVDPEYLPRRHVKLDPPSDLQSNISSGHCILTWSISPALEPMTTLLSYELAFKKQEEAWEQAQHRDHIVGVTWLILEAFELDPGFIHEARLRVQMATLEDDVVEEERYTGQWSEWSQPVCFQAPQRQGPLIPPWGWPGNTLVAVSIFLLLTGPTYLLFKLSPRVKRIFYQNVPSPAMFFQPLYSVHNGNFQTWMGAHRAGVLLSQDCAGTPQGALEPCVQEATALLTCGPARPWKSVALEEEQEGPGTRLPGNLSSEDVLPAGCTEWRVQTLAYLPQEDWAPTSLTRPAPPDSEGSRSSSSSSSSSNNNNYCALGCYGGWHLSALPGNTQSSGPIPALACGLSCDHQGLETQQGVAWVLAGHCQRPGLHEDLQGMLLPSVLSKARSWTF

Experiments:
Jak-Stat pathway = assay: Tyrosine phosphorylation of Jak, Stat and Irs family members in TS1 cells expressing human IL-9 receptor variants, after IL-9 stimulation; assay type: cell-based; conditions: TS1 cells expressing the receptor form, starved 6 hours, treated 5 minutes with human or murine IL-9 (100 ng/ml), FIG. 15
Description: (§1) To determine growth response of TS1 cells expressing various forms of human IL-9 receptor, cells were washed with PBS and resuspended in D-MEM, 10% fetal bovine serum. 10^3 cells per well were seeded in triplicate in 96-well microplates and, where appropriate, recombinant human IL-9 or murine IL-9 (R&D Systems, Minneapolis, Minn.) was added at a final concentration of 5 ng/ml. Cell proliferation was evaluated after 7 days using an acid phosphatase assay. Briefly, 50 μl of a buffer containing 0.1 M sodium acetate (pH 5.5), 0.1% Triton X-100 and 10 mM p-nitrophenyl phosphate (Sigma 104 phosphatase substrate) was added per well. The plate was incubated for 1-½ hours at room temperature, the reaction stopped with 10 μl/well of 1N sodium hydroxide and the absorbance was read on a Dynatech Model MR600 at 410 nm. To analyze tyrosine-phosphorylation of proteins of the signal transduction cascade upon cytokine stimulation, TS1 cells expressing various forms of human IL-9 receptor were washed with PBS, resuspended in D-MEM, 0.5% bovine serum albumin, and incubated for 6 hours at 37° C. Successively, 20×10^6 cells were treated for 5 minutes with either human IL-9 or murine IL-9 (100 ng/ml) and immediately washed in cold PBS. Cells were lysed in RIPA buffer as described in Example 11.
Typically, 20-50×10^6cells were lysed in 1 ml of RIPA buffer (PBS containing 1% NP40, 0.5% sodium deoxycholate, 0.1% SDS, 1 mM PMSF, 50 mM sodium fluoride, […] sodium orthovanadate, and 1× “Complete” protease inhibitors mixture, Cat. No. 1697498 Boehringer Mannheim) and incubated for 45 minutes on ice. Lysates were centrifuged for 20 minutes in an Eppendorf microcentrifuge and the supernatant recovered and transferred to a fresh tube. For immunoprecipitations, 1-5 μg of the antibody were added to the lysate and incubated overnight at 4° C. […] Proteins were transferred onto Immobilion-P membrane (Millipore) and detected using a horseradish peroxidase-conjugated secondary antibody followed by a chemiluminescence detection assay (Pierce). […]

TS1 cells = assay: Proliferation of TS1 cells expressing different forms of human IL-9 receptor (acid phosphatase assay); assay type: cell-based, murine; conditions: TS1 cells expressing the receptor form, IL-9 5 ng/ml, 7 days, FIG. 16
Description: as §1

[1] = listed as splice variant of the IL-9R

Row | Molecule | activation (tyrosine phosphorylation) of proteins of the Jak-Stat pathway (Jak-Stat pathway) | activation (tyrosine phosphorylation) of proteins of the Jak-Stat pathway (Jak-Stat pathway; [1]) | cellular proliferation upon IL-9 stimulation (TS1 cells) | cellular proliferation upon IL-9 stimulation (TS1 cells; [1])
1 | B1 | could not activate any proteins in the Jak-Stat pathway | not able to transcribe a signal through the Jak-Stat pathway | could not support cellular proliferation upon IL-9 stimulation | unable to induce cellular proliferation upon stimulation with IL-9
2 | B2 | all of the proteins of the pathway including Jak3 and Irs1 were phophoralated | – | – | –
